# Test system: patients with locally advanced or metastatic urothelial cancer
# Assay: Same phase 2 study: safety (adverse events, NCI CTCAE v4.03)
# Format: in vivo, human
# Excerpt: Safety assessments will be based on the information collected through the safety surveillance process and will include the data from recorded adverse events (AEs) including SAEs, recording of concomitant medication, physical examination findings, cardiac monitoring, and laboratory tests.
# The assessment of safety during the course of this study will consist of the surveillance and recording of AEs including SAEs, recording of concomitant medication, and measurements of protocol-specified physical examination findings, cardiac monitoring, and laboratory tests.
# AE severity should be graded using the National Cancer Institute's Common Terminology Criteria for Adverse Events (NCI CTCAE), Version 4.03. These criteria are provided in the study manual.
# An overview of AEs will provide a tabulation of the incidence of all AEs, treatment-emergent AEs, treatment-related AEs, Grade 3 and higher AEs. SAEs, treatment-related SAEs, deaths, and AEs leading to study treatment discontinuation. Adverse events will be defined as treatment emergent if they are newly occurring or worsened following study treatment.
# AEs will be classified by system organ class and preferred tem using the Medical Dictionary for Regulatory Activities (MedDRA) and graded using NCI CTCAE, Version 4.03.
# The incidence of AEs will be summarized by system organ class, preferred term, severity and relationship to study drug. In the event of multiple occurrences of the same AE in one patient, the AE will be counted once as the occurrence for the maximum grade. AEs leading to premature discontinuation of study drug will be summarized and listed in the same manner.
# [1] = Cohort 2 (N = 89), additional 3 months follow-up
# [2] = Cohort 2 (N = 89), count (percent)
# [3] = Cohort 2, additional 3 months follow-up
substance,measurement,setting,value
enfortumab vedotin: Nectin-4 directed ADC: fully human anti-nectin-4 IgG1 kappa antibody (AGS-22C3) conjugated to MMAE via protease-cleavable maleimidocaproyl valine-citrulline linker,"TRAEs, Any Grade: Neutropenia",[1],11 (12) n (%)
same,"TRAEs, Any Grade: Overall",[1],86 (97) n (%)
same,"TRAEs, Any Grade: Peripheral sensory neuropathy",[1],44 (49) n (%)
same,"TRAEs, Any Grade: Pruritus",[1],27 (30) n (%)
same,"TRAEs, Any Grade: Rash maculo-papular",[1],27 (30) n (%)
same,"TRAEs, Any Grade: nnn Weight decreased",[1],23 (26) n (%)
same,"TRAEs, ≥Grade 3: Anemia",[1],5 (6) n (%)
same,"TRAEs, ≥Grade 3: Decreased appetite",[1],5 (6) n (%)
same,"TRAEs, ≥Grade 3: Diarrhea",[1],5 (6) n (%)
same,"TRAEs, ≥Grade 3: Fatigue",[1],6 (7) n (%)
same,"TRAEs, ≥Grade 3: Hyperglycemia",[1],5 (6) n (%)
same,"TRAEs, ≥Grade 3: Lipase increased",[1],5 (6) n (%)
same,"TRAEs, ≥Grade 3: Nausea",[1],1 (1) n (%)
same,"TRAEs, ≥Grade 3: Neutropenia",[1],8 (9) n (%)
same,"TRAEs, ≥Grade 3: Overall",[1],49 (55) n (%)
same,"TRAEs, ≥Grade 3: Peripheral sensory neuropathy",[1],3 (3) n (%)
same,"TRAEs, ≥Grade 3: Pruritus",[1],3 (3) n (%)
same,"TRAEs, ≥Grade 3: Rash maculo-papular",[1],7 (8) n (%)
same,"TRAEs, ≥Grade 3: nnn Weight decreased",[1],1 (1) n (%)
same,TEAEs leading to death (excluding disease progression): Acute kidney injury,[2],2 (2.2)
same,TEAEs leading to death (excluding disease progression): Metabolic acidosis,[2],1 (1.1)
same,TEAEs leading to death (excluding disease progression): Multiple organ dysfunction syndrome,[2],1 (1.1)
same,TEAEs leading to death (excluding disease progression): Overall,[2],5 (5.6)
same,TEAEs leading to death (excluding disease progression): Sepsis,[2],1 (1.1)
same,"Primary Cause of Death, treatment-related death","Cohort 2, Subject 10007-0180, death on study day 15",Metabolic acidosis
same,"Primary Cause of Death, treatment-related death","Cohort 2, Subject 10013-0190, death on study day 28",Acute kidney injury
same,"Primary Cause of Death, treatment-related death","Cohort 2, Subject 10030-0197, death on study day 25",Multiple organ
same,"Primary Cause of Death, treatment-related death","Cohort 2, Subject 82004-0178, death on study day 203",Pneumonitis
same,"Treatment-related TEAEs of interest: hyperglycemia, all grade",[3],10%
same,"Treatment-related TEAEs of interest: hyperglycemia, ≥G3",[3],6%
same,"Treatment-related TEAEs of interest: peripheral neuropathy, all grade",[3],56%
same,"Treatment-related TEAEs of interest: peripheral neuropathy, ≥G3",[3],8%
same,"Treatment-related TEAEs of interest: rash, all grade",[3],61%
same,"Treatment-related TEAEs of interest: rash, ≥G3",[3],17%
same,patients who discontinued treatment due to grade 3 dermatitis bullous,[3],one
same,skin reactions: grade 4 events,[3],1
same,skin reactions: grade 5 events,[3],no grade 5 events
same,treatment-related TEAEs (all-grade): alopecia,[3],51%
same,treatment-related TEAEs (all-grade): fatigue,[3],34%
same,treatment-related TEAEs (all-grade): peripheral sensory neuropathy,[3],49%
same,patients with severe cutaneous adverse reactions,"Cohort 2, irrespective of grade, additional 3 months follow-up",13
same,rate of hyperglycemia,"Cohort 2, patients with preexisting hyperglycemia",20%
same,rate of peripheral neuropathy,"Cohort 2, patients with preexisting peripheral neuropathy",60%
same,rate of hyperglycemia,"Cohort 2, patients without preexisting hyperglycemia",7%
same,rate of peripheral neuropathy,"Cohort 2, patients without preexisting peripheral neuropathy",55%
same,patients with severe cutaneous adverse reactions who had grade 3 events,"Cohort 2, stomatitis, skin exfoliation, dermatitis bullous, dermatitis exfoliative generalized",4
same,additional treatment-related deaths in the updated analysis,"Cohort 2, three-month follow-up",No additional treatment-related deaths
same,"AE of special interest, All Grade: Hyperglycemia",Total (N = 214),36 (16.8) N (%)
same,"AE of special interest, All Grade: IRR",Total (N = 214),14 (6.5) N (%)
same,"AE of special interest, All Grade: Ocular Events, Blurred Vision",Total (N = 214),30 (14.0) N (%)
same,"AE of special interest, All Grade: Ocular Events, Corneal Disorders",Total (N = 214),23 (10.7) N (%)
same,"AE of special interest, All Grade: Ocular Events, Dry Eye Disorders",Total (N = 214),78 (36.4) N (%)
same,"AE of special interest, All Grade: Peripheral Neuropathy",Total (N = 214),122 (57.0) N (%)
same,"AE of special interest, All Grade: Rash",Total (N = 214),126 (58.9) N (%)
same,"AE of special interest, ≥Gr 3: Hyperglycemia",Total (N = 214),18 (8.4) N (%)
same,"AE of special interest, ≥Gr 3: IRR",Total (N = 214),2 (0.9) N (%)
same,"AE of special interest, ≥Gr 3: Peripheral Neuropathy",Total (N = 214),12 (5.6) N (%)
same,"AE of special interest, ≥Gr 3: Rash",Total (N = 214),30 (14.0) N (%)
same,Any TEAEs,Total (N = 214),214 (100.0) n (%)
same,Any TEAEs leading to death,Total (N = 214),15 (7.0) n (%)
same,Any TEAEs leading to treatment discontinuation,Total (N = 214),38 (18.2) n (%)
same,Any grade 3-5 TEAEs,Total (N = 214),155 (72.4) n (%)
same,Any serious TEAEs,Total (N = 214),94 (43.9) n (%)
same,SAEs (All): Acute kidney injury,Total (N = 214),13 (6.1) n (%)
same,SAEs (All): Cellulitis,Total (N = 214),6 (2.8) n (%)
same,SAEs (All): Diarrhoea,Total (N = 214),6 (2.8) n (%)
same,SAEs (All): Febrile neutropenia,Total (N = 214),6 (2.8) n (%)
same,SAEs (All): Nausea,Total (N = 214),5 (2.3) n (%)
same,SAEs (All): Overall,Total (N = 214),94 (43.9) n (%)
same,SAEs (All): Pneumonia,Total (N = 214),6 (2.8) n (%)
same,SAEs (All): Sepsis,Total (N = 214),8 (3.7) n (%)
same,SAEs (All): Urinary tract infection,Total (N = 214),9 (4.2) n (%)
same,SAEs (Related): Acute kidney injury,Total (N = 214),4 (1.9) n (%)
same,SAEs (Related): Cellulitis,Total (N = 214),2 (0.9) n (%)
same,SAEs (Related): Diarrhoea,Total (N = 214),3 (1.4) n (%)
same,SAEs (Related): Febrile neutropenia,Total (N = 214),6 (2.8) n (%)
same,SAEs (Related): Nausea,Total (N = 214),4 (1.9) n (%)
same,SAEs (Related): Overall,Total (N = 214),39 (18.2) n (%)
same,SAEs (Related): Pneumonia,Total (N = 214),1 (0.5) n (%)
same,Treatment-related AE leading to discontinuation: Acute kidney injury,Total (N = 214),2 (0.9) n (%)
same,Treatment-related AE leading to discontinuation: Asthenia,Total (N = 214),1 (0.5) n (%)
same,Treatment-related AE leading to discontinuation: Dermatitis bullous,Total (N = 214),1 (0.5) n (%)
same,Treatment-related AE leading to discontinuation: Drug eruption,Total (N = 214),1 (0.5) n (%)
same,Treatment-related AE leading to discontinuation: Enterocolitis,Total (N = 214),1 (0.5) n (%)
same,Treatment-related AE leading to discontinuation: Fatigue,Total (N = 214),1 (0.5) n (%)
same,Treatment-related AE leading to discontinuation: Hyperglycaemia,Total (N = 214),1 (0.5) n (%)
same,Treatment-related AE leading to discontinuation: Interstitial lung disease,Total (N = 214),1 (0.5) n (%)
same,Treatment-related AE leading to discontinuation: Lipase increased,Total (N = 214),2 (0.9) n (%)
same,Treatment-related AE leading to discontinuation: Metabolic acidosis,Total (N = 214),1 (0.5) n (%)

# Source: patent US20230364254A1, “METHODS FOR TREATING CANCERS WITH ANTIBODY DRUG CONJUGATES (ADC) THAT BIND TO 191P4D12 PROTEINS” (priority 2020, published 2023)
